According to doi:10.1101/2024.02.06.579161:

Target: T1, S100A9, P06702
T1 chain: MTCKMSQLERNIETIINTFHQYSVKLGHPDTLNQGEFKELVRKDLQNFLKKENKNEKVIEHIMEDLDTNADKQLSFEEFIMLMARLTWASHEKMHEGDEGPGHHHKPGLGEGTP
Assay: SDS-PAGE
Conditions: remark: other sources report otherwise

B1: S100A9, P06702 1-114 (natural protein)
chain: MTCKMSQLERNIETIINTFHQYSVKLGHPDTLNQGEFKELVRKDLQNFLKKENKNEKVIEHIMEDLDTNADKQLSFEEFIMLMARLTWASHEKMHEGDEGPGHHHKPGLGEGTP
- stoichiometry N: 2
